Among the data in US20250283117, “RNA-GUIDED NUCLEASES AND ACTIVE FRAGMENTS AND VARIANTS THEREOF AND METHODS OF USE” (Life Edit Therapeutics, Inc., published 2025) are activity values, retold here.

For the data set, the system named is T1, APG08290.1 (Bacillus sp.).
T1 sequence: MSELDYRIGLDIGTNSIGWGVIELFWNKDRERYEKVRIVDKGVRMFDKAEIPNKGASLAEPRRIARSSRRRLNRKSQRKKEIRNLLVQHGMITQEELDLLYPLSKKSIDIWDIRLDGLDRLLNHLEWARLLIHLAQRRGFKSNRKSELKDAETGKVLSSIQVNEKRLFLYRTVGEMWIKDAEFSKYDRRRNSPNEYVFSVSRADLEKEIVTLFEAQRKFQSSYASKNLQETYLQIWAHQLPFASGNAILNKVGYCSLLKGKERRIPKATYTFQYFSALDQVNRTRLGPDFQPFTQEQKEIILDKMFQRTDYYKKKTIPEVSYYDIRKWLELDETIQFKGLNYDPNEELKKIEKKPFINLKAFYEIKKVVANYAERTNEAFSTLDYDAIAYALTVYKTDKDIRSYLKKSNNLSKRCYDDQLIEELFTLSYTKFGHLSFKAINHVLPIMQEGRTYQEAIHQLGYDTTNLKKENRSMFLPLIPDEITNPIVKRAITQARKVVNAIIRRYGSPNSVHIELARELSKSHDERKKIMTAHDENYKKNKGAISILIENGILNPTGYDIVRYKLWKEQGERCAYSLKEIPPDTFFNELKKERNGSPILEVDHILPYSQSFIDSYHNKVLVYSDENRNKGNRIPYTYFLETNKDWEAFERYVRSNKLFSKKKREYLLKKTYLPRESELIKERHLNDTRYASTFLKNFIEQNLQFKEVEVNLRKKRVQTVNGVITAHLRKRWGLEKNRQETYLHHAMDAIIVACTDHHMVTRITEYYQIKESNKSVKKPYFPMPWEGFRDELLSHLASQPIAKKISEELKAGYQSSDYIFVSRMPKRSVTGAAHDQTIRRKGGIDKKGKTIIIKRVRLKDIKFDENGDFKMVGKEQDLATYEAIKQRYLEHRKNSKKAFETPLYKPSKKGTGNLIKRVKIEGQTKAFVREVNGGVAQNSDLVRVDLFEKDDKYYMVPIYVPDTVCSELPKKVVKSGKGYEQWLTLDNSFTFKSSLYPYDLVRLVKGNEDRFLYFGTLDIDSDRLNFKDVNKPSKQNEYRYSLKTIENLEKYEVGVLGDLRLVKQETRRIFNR
The data set can be described thus: cleavage_in_vitro.

Like-named read-outs stand apart in the source and are kept apart here.

“GAGCGGACAGCAGCUUCCUAUAUCUCGUACNNNNNNNNNNNNNNNNNNNNNNNNNGUCAUAGUUCCAUGAAAGCCAAAAGUGGCUUUGAUGUUUCUAUGAUAAGGGUUUCGGCCCGUGGCGUCGGGGAUCGCCUGCCCAUUCCGAUGGGCUUCUCCCCAUUUAUU / CAGCGGACAGCAGCTTCCTATATCTCGTAC / GTACGAGATATAGGAAGCTGCTGTCCGCTG [Sequence 1 sgRNA for APG08290.1 ; target mismatch 30]” had an activity of 100 % cleaved.

In the case of “GAGCGGACAGCAGCUUCCUAUAUCUCGUACNNNNNNNNNNNNNNNNNNNNNNNNNGUCAUAGUUCCAUGAAAGCCAAAAGUGGCUUUGAUGUUUCUAUGAUAAGGGUUUCGGCCCGUGGCGUCGGGGAUCGCCUGCCCAUUCCGAUGGGCUUCUCCCCAUUUAUU / GAGCGGACAGCACCTTCCTATATCTCGTAC / GTACGAGATATAGGAAGGTGCTGTCCGCTC [Sequence 1 sgRNA for APG08290.1 ; target mismatch 18]”, the activity was 100 % cleaved.

“GAGCGGACAGCAGCUUCCUAUAUCUCGUACNNNNNNNNNNNNNNNNNNNNNNNNNGUCAUAGUUCCAUGAAAGCCAAAAGUGGCUUUGAUGUUUCUAUGAUAAGGGUUUCGGCCCGUGGCGUCGGGGAUCGCCUGCCCAUUCCGAUGGGCUUCUCCCCAUUUAUU / GAGCGGACAGCAGCTTCCTAAATCTCGTAC / GTACGAGATTTAGGAAGCTGCTGTCCGCTC [Sequence 1 sgRNA for APG08290.1 ; target mismatch 10]” had an activity of 75 % cleaved.

Turning to “GAGCGGACAGCAGCUUCCUAUAUCUCGUACNNNNNNNNNNNNNNNNNNNNNNNNNGUCAUAGUUCCAUGAAAGCCAAAAGUGGCUUUGAUGUUUCUAUGAUAAGGGUUUCGGCCCGUGGCGUCGGGGAUCGCCUGCCCAUUCCGAUGGGCUUCUCCCCAUUUAUU / GAGCGGACAGCAGCTTCCTATAACTCGTAC / GTACGAGTTATAGGAAGCTGCTGTCCGCTC [Sequence 1 sgRNA for APG08290.1 ; target mismatch 8]”, the activity was 0 % cleaved.

Turning to “GAGCGGACAGCAGCUUCCUAUAUCUCGUACNNNNNNNNNNNNNNNNNNNNNNNNNGUCAUAGUUCCAUGAAAGCCAAAAGUGGCUUUGAUGUUUCUAUGAUAAGGGUUUCGGCCCGUGGCGUCGGGGAUCGCCUGCCCAUUCCGAUGGGCUUCUCCCCAUUUAUU / GAGCGGACAGCAGCTTCCTATATCTCGAAC / GTTCGAGATATAGGAAGCTGCTGTCCGCTC [Sequence 1 sgRNA for APG08290.1 ; target mismatch 3]”, the activity is 73 % cleaved.

In turn, “GAGCGGACAGCAGCUUCCUAUAUCUCGUACNNNNNNNNNNNNNNNNNNNNNNNNNGUCAUAGUUCCAUGAAAGCCAAAAGUGGCUUUGAUGUUUCUAUGAUAAGGGUUUCGGCCCGUGGCGUCGGGGAUCGCCUGCCCAUUCCGAUGGGCUUCUCCCCAUUUAUU / GAGCGGACAGCAGCTTCCTATATCTCGTAC / GTACGAGATATAGGAAGCTGCTGTCCGCTC” returned an activity (incompatible PAM) of 0 % cleaved.

Under “PAM NNRNCC, NTS cut 4, TS cut 3, 1 nt 5' overhang (Table 3)”, “GAGCGGACAGCAGCUUCCUAUAUCUCGUACNNNNNNNNNNNNNNNNNNNNNNNNNGUCAUAGUUCCAUGAAAGCCAAAAGUGGCUUUGAUGUUUCUAUGAUAAGGGUUUCGGCCCGUGGCGUCGGGGAUCGCCUGCCCAUUCCGAUGGGCUUCUCCCCAUUUAUU / GAGCGGACAGCAGCTTCCTATATCTCGTAC / GTACGAGATATAGGAAGCTGCTGTCCGCTC [Sequence 1 sgRNA for APG08290.1 ; Sequence 1 target]” yielded an activity of 95 % cleaved.

As to “GAGCGGACAGCAGCUUCCUAUAUCUCGUACNNNNNNNNNNNNNNNNNNNNNNNNNGUCAUAGUUCCAUGAAAGCCAAAAGUGGCUUUGAUGUUUCUAUGAUAAGGGUUUCGGCCCGUGGCGUCGGGGAUCGCCUGCCCAUUCCGAUGGGCUUCUCCCCAUUUAUU / GAGCGGACAGCAGCTTCCTATATCTCGTAG / CTACGAGATATAGGAAGCTGCTGTCCGCTC [Sequence 1 sgRNA for APG08290.1 ; target mismatch 1]”, the activity is 0 % cleaved.
